The target of assay [1] is T1, Aβ(1-42) globulomer (human, UniProt P05067 672-713).
T1 construct: The definitions give n=12-14 subunits for late assembly forms; no subunit number is stated for the preparation used; also called A-beta (1-42) globulomer; Aβ(1-42) globular oligomer
Kind of assay: sandwich ELISA, reference Aβ(1-42) monomer. (An ELISA detects its analyte on a solid surface through an enzyme-linked reagent.)

Assay [2] concerns the target Aβ(1-42) monomer in NH4OH (human). Kind of assay: sandwich ELISA, EC50 of this antigen divided by EC50 of Aβ(1-42) globulomer.
Assay [3] has as its target T2, Aβ(1-40) monomer (human).
T2 construct: also called Aβ40; Aβ(1-40) monomer HFIP pretreated
The assay is described as above.

For assay [4], the target named is T3, Aβ(1-42) monomer, HFIP pretreated (human).
T3 construct: also called Aβ(1-42) monomer in HFIP; Aβ(1-42) monomer HFIP treated
Described as above.

Assay [5] concerns the target T1, Aβ(1-42) globulomer. Put plainly: dot blot, reference Aβ(1-42) monomer. As to the method:
(§1) In a second example, described in Example 2.2 below, the oligomer selectivity versus Aβ(1-42) monomer and Aβ(1-40) monomer was examined by dot blot immunoassay.
(§2) Serial dilutions of Aβ(1-42) globulomer, Aβ1-42 monomer and Aβ1-40 monomer were made in the range from 100 pmol/μl-0.01 pmol/μl in PBS. Of each sample, 1 μl was dotted onto a nitrocellulose membrane. […] The detection signal was analyzed in its intensity (reflective density=RD) via a densitometer (GS 800, Biorad, Hercules, Calif., USA) at an antigen concentration of 10 pmol.

The target in assay [6] is T4, Aβ1-42 monomer (dot blot) (human).
T4 construct: also called Aβ42 monomer
Put plainly: dot blot, 10 pmol antigen on nitrocellulose, 0.2 µg/ml antibody, densitometry. As to the method: as §1, §2

Assay [7] has as its target T2, Aβ(1-40) monomer. Described as above. Here is the method: as §1, §2
Assay [8] concerns the target T1, Aβ(1-42) globulomer. Described as above. As to the method: as §1, §2
The target in assay [9] is T1, Aβ(1-42) globulomer. Put plainly: dot blot, reference Aβ(1-40) monomer. Here is the method:
as §1, §2

Assay [10] deals with Aβ(1-42) monomer in NH4OH (human). Kind of assay: sandwich ELISA, 6G1 capture, antigen titrated, biotinylated 8F5 detection. As to the method:
(§3) Two types of experiments were performed. […] This experiment is described in Example 2.1 below.
(§4) Add 10 μl Aβ(1-42) monomer HFIP-pretreated standard stock solution to 44041 PBST+0.5% BSA 10 μg/ml Add 50 μl 10 μg/ml Aβ(1-42) monomer HFIP pretreated standard solution to 495041 PBST+0.5% BSA=100 ng/ml c) Aβ(1-42) monomer in NH4OH Add 5 μl Aβ(1-42) monomer in NH4OH standard stock solution to 995 μl PBST+0.5% BSA=[…] Add 50 μl 10 μg/ml Aβ(1-42) monomer in NH4OH standard solution to 495041 PEST+[…]=100 ng/ml d) Aβ(1-40) monomer HFIP-pretreated Add 1 μl Aβ(1-40) monomer HFIP pretreated standard stock solution to 49 μl PBST+0.5% BSA=430 μg/ml Add 10 μl 430 μg/ml Aβ(1-40) monomer HFIP pretreated standard solution to […] PEST+0.5% BSA=10 μg/ml Add 50 μl 10 μg/ml Aβ(1-40) monomer HFIP pretreated standard solution to 4950 μl PBST+0.5% BSA 100 ng/ml Standard Curves:
(§5) 1. Apply 100 μl anti-Aβ mMAb 6G1 solution per well and incubate overnight at 4° C. 2. Discard the antibody solution and wash the wells with 250 μl PBST-Buffer three times. 3. Add 260 μl block solution per well and incubate 2 h at room temperature. 4. Discard the block solution and wash the wells with 250 μl PBST-Buffer three times. 5. After preparation of standards, apply 100 μl per well of standards to the plate. Incubate 2 h at room temperature and overnight at 4° C. 6. Discard the standard solution and wash the wells with 250 μl PBST-Buffer three times. 7. […] 8. Discard the antibody solution and wash the wells with 250 μl PBST-Buffer three times. 9. Add 200 μl label solution per well and incubate 1 h at room temperature. 10. Discard the label solution and wash the wells with 250 μl PBST-Buffer three times. 11. Add 100 μl of TMB solution to each well and incubate at room temperature (5-15 min). 12.

In assay [11] the target is T2, Aβ(1-40) monomer. The assay is described as above. Here is the method:
as §3, §4, §5

In assay [12] the target is T1, Aβ(1-42) globulomer. Described as above. Here is the method:
as §3, §4, §5

In assay [13] the target is T3, Aβ(1-42) monomer, HFIP pretreated. Described as above. Here is the method:
as §3, §4, §5

Assay [14] addresses T5, endogenous Aβ(1-42) in human CSF (human).
T5 construct: Endogenous peptide in cerebrospinal fluid of MCI and AD patients; it was quantified after elution by ELISA or urea-PAGE Western blot; also called Aβ42; Amyloid β(1-42)
Kind of assay: IP from AD patient CSF, urea-PAGE Western blot, share of Aβ42 in recovered Aβ40+42. Background: In western blotting, separated proteins are transferred to a membrane and probed.
Protocol: Immunoprecipitation of Abeta Species from Human AD-CSF: 250 μL aliquot of the prepared CSF sample were added to 25 μL anti-Aβ-Dynabeads suspension. Immunoprecipitation occurred under stirring at 6° C. for 16 hours. Subsequent washing of the beads was performed 3 times 5 min. with 1 mL PBS/0.1% (w/v) BSA and finally once 3 min. with 1 mL 10 mM Tris/HCL pH 7.5 buffer. During the washing procedure, the supernatant was carefully removed while the dynabeads were immobilized at the side of the reaction vial with a magnetic separator stand (MSS). The residual supernatant was thoroughly removed after the final washing step. […] After cooling to room temperature, the dynabeads were immobilized at the side of the reaction vial with a magnetic separator stand (MSS), and the supernatant was transferred to another Eppendorff tube (IP eluate).
15 μL IP eluate aliquots of the immunoprecipitated samples were loaded onto the 8 M Urea PAGE. Electrophoresis was performed at 100 V (15 min) and continued at 60 V. The electrophoresis was stopped when the running front of the blue sample loading dye was still 0.5 cm away from the end of the gel.

The target of assay [15] is T4, Aβ1-42 monomer (dot blot). Kind of assay: dot blot, 10 pmol antigen on nitrocellulose, densitometry. As to the method:
as §1, §2

The target of assay [16] is T2, Aβ(1-40) monomer. The description is as above. Here is the method: as §1, §2
The target in assay [17] is T1, Aβ(1-42) globulomer. The description is as above. As to the method:
as §1, §2

The results in this text go back to patent publication US8497072 (AbbVie / Abbott, dated 2013).

Positions count from the first letter of the chain named.

T1 sequence (P05067 672-713 limits assumed): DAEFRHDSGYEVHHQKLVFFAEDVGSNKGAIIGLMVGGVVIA
Sequence of Aβ(1-42) monomer in NH4OH (human) (peptide, as listed by the source): as the sequence (P05067 672-713 limits assumed) above
T3 sequence (peptide, as listed by the source): as the sequence (P05067 672-713 limits assumed) above
T2 sequence (peptide, as listed by the source): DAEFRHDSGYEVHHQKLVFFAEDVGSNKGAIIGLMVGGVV
T5 sequence (peptide, as listed by the source): as the sequence (P05067 672-713 limits assumed) above
T4 sequence (peptide, as listed by the source): as the sequence (P05067 672-713 limits assumed) above

B1: monoclonal antibody 8F5 (antibody, V domains shown)
VH: EVQLVESGGGLVQPGGSLKLSCAASGFTFSSYGMSWVRQTPDKRLELVASINSNGGSTYYPDSVKGRFTISRDNAKNTLYLQMSSLKSEDTAMYYCASGDYWGQGSTLTVSS
VL: DVVMTQTPLSLPVSLGDQASISCRSSQSLVYSNGDTYLHWYLQKPGQSPKLLIYKVSNRFSGVPDRFSGSGSGTDFTLKISRVEAEDLGVYFCSQSTHVPWTFGGGTKLEIKR
notes: Murine monoclonal antibody from a hybridoma (Balb/c mice immunized with Aβ(1-42) globulomer); Biotinylated with Sulfo-NHS-Biotin for the sandwich ELISA; coupled to Sepharose or Dynabeads for the immunoprecipitations; also called mMAb 8F5; anti-Aβ mouse Mab 8F5
As for B1, the “selectivity for Aβ(1-42) globulomer versus Aβ(1-42) monomer” value with Aβ(1-42) globulomer [1] was about 10 fold. The “selectivity factor (EC50 ratio against Aβ(1-42) globulomer)” value in assay [2] is 11.1 fold; in the assay with Aβ(1-40) monomer [3] it was 7.4 fold; in [4] it was 6.1 fold. In the assay with Aβ(1-42) globulomer [5], the “Ratio RD Aβ(1-42) globulomer/RD Aβ(1-42) monomer” value worked out at 1.4. Also, the “Reflective Density (RD) [10 pmol]” value in assay [6] came to 1.1 RD; with Aβ(1-40) monomer [7], 0.1 RD; in the assay with Aβ(1-42) globulomer [8], 1.6 RD. In addition, the “Ratio RD Aβ(1-42) globulomer/RD Aβ(1-40) monomer” value with Aβ(1-42) globulomer [9] came to 16.9. Besides, the “Log EC50” value amounted to 3 in [10], 2.83 with Aβ(1-40) monomer [11], 1.96 with Aβ(1-42) globulomer [12] and 2.75 in assay [13]. Further, the “Ratio Aβ42/Aβ40+42 × 100%” value in assay [14] worked out at 8.1%.

B2: monoclonal antibody 8C5 (antibody, V domains shown)
VH: B1 VH with A23T, N52K, S53N, V64L, S106T
VL: B1 VL with Y31H, Y37F, V90I, T97I
notes: Murine monoclonal antibody from a hybridoma; Biotinylated for the sandwich ELISA; also called mMab 8C5; 5C5
For B2, the “Reflective Density (RD) [10 pmol]” value worked out at 0.2 RD in assay [15], 0.3 RD with Aβ(1-40) monomer [16] and 1.3 RD with Aβ(1-42) globulomer [17]. The “selectivity factor (EC50 ratio against Aβ(1-42) globulomer)” value in assay [2] was over 100 fold; with Aβ(1-40) monomer [3] it was over 100 fold; in assay [4] it was 4.1 fold. Also, the “Ratio RD Aβ(1-42) globulomer/RD Aβ(1-42) monomer” value with Aβ(1-42) globulomer [5] turned out to be 5.1. Besides, the “Ratio RD Aβ(1-42) globulomer/RD Aβ(1-40) monomer” value in the assay with Aβ(1-42) globulomer [9] is 4.1. In addition, the “Ratio Aβ42/Aβ40+42 × 100%” value in assay [14] worked out at 14.9%.
